Our source for the IC50 (read off the curve) and EC50 (read off the curve) values is patent US20230338524A1.

One experiment has as its target mouse VEGFR2 (mouse) (UniProt P35918). In words: Blocking ELISA, panel 'mVEGF-mVEGFR2'; blocked ligand murine VEGF; antibody titrated (Log (M)). (ELISA stands for enzyme-linked immunosorbent assay.)
The target in experiment [1] is soluble murine VEGFR2 (murine) (UniProt P35918). Put plainly: ELISA, OD450, panel 'mVEGFR2', antibody titrated (Log (M)).
Sequence of soluble murine VEGFR2 (murine) (P35918 20-762 limits assumed): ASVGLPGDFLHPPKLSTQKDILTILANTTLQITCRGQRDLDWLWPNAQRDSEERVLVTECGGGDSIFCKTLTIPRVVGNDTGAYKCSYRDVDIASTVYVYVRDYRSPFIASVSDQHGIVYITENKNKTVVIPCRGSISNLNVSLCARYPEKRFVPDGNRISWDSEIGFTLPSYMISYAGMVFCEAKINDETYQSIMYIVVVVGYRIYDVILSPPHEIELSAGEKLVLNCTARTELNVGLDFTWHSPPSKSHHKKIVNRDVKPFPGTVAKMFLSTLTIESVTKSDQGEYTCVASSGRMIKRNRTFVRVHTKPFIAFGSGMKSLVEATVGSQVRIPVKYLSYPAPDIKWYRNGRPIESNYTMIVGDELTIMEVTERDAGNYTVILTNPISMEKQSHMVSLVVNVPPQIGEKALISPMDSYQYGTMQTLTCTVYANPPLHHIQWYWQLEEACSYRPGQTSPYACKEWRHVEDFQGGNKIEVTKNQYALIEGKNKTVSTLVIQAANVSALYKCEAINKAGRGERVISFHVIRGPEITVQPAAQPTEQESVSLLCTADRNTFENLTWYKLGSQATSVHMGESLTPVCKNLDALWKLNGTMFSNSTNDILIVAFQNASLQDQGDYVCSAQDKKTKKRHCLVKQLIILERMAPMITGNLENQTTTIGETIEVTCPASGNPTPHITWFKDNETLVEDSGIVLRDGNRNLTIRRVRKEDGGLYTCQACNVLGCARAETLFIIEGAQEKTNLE

Sequence of mouse VEGFR2 (mouse) (P35918 20-762 limits assumed): as above

B1: DC101 (a murine monoclonal Ab that binds to murine VEGFR2) (antibody, from another filing, V domains shown)
VH: EVQLVETGGGLVQPGNSLKLSCATSGFIFSTTWMNWIRQTPGKRLEWLAQIEDKSNNYFISYSESVKGRFTISRDDSKSSVYLQMNNLKEEDTAIYYCSWKYRSNYYFDYWGQGVMVTVSS
VL: DIVLTQSPALAVSLEQRATISCKTSQNVDYYGISYLHWYQQKPGQQPKLLIYEGSNLASGIPARFSGSGSGTDFTLTIDPVEADDIVTYYCQQSKDYPYTFGAGTKLELKR
Molecule B1 showed an IC50 (read off the curve) in the experiment with mouse VEGFR2 (mouse) of 0.5 nM. In experiment [1], this molecule came in with an EC50 (read off the curve) of 0.3 nM.

For orientation: EC50 (read off the curve) means the concentration needed to bring the measured effect to its halfway point. A high value points to a need for much substance.
